The labels stand for the following.
B1: rhodamine-labeled 22-residue carboxy-terminal NPT2A peptide (peptide)
peptide: {5(6)‑carboxytetramethylrhodamine}-ELPPATPSPRLALPAHHNATRL
notes: type II sodium-dependent phosphate co-transporter (NPT2A, SLC34A1), 22-residue carboxy-terminal fragment; also called labeled NPT2A peptide; source: synthetic peptide (solid phase, Fmoc; HPLC purified)
B2: NPT2A peptide (ligand titrated in ITC) (peptide)
peptide: ELPPATPSPRLALPAHHNATRL
notes: type II sodium-dependent phosphate co-transporter (NPT2A, SLC34A1), 22-residue carboxy-terminal fragment; Kept apart from m1 for that reason; also called ligand NPT2A; source: synthetic peptide
B3: NHERF1 PDZ2 D183E (domain or fragment, human, UniProt O14745 133-300, looked up)
chain: NENEPREADKSHPEQRELRPRLCTMKKGPSGYGFNLHSDKSKPGQFIRSVEPDSPAEASGLRAQDRIVEVNGVCMEGKQHGDVVSAIRAGGDETKLLVVDRETDEFFKKCRVIPSQEHLNGPLPVPFTNGEIQKENSREALAEAALESPRPALVRSASSDTSEELNSQ
notes: Na+/H+ Exchanger Regulatory Factor-1 (NHERF1, EBP50), human, PDZ2 construct, residues 133-300 (mutation introduced into pET16-N1P2), Asp183Glu; also called Asp183Glu PDZ2; single PDZ2 mutant; source: E. coli BL21 (DE3), purified (Ni-NTA-agarose)
B4: NHERF1 PDZ2 N167H/D183E (domain or fragment, human, UniProt O14745 133-300, looked up)
chain: B3 chain with N35H
notes: Na+/H+ Exchanger Regulatory Factor-1 (NHERF1, EBP50), human, PDZ2 construct, residues 133-300 (mutations introduced into pET16-N1P2), Asn167His and Asp183Glu; also called Asn167His/Asp183Glu PDZ2; double PDZ2 mutant; source: E. coli BL21 (DE3), purified (Ni-NTA-agarose)

Changes are numbered by the printed parent chain. In names and notes the source's numbering stands. Where no end group is shown, it is not given here.

Conditions in all cases: both partners purified
Experiment [1] addresses T1, NHERF1 PDZ1 (1–140) (human, UniProt O14745 1-140).
T1 construct: Na+/H+ Exchanger Regulatory Factor-1 (NHERF1, EBP50), human, PDZ1 construct, residues 1-140; Plasmid pET16-N1P1 provided by D. F. Mierke; also called WT PDZ1 (1–140); pET16-N1P1; source: E. coli BL21 (DE3), purified (Ni-NTA-agarose)
T1 sequence (looked up): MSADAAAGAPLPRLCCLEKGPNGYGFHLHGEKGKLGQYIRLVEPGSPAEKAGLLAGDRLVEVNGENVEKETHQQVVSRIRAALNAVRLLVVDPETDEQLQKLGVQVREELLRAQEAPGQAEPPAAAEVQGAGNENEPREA
Kind of experiment: fluorescence polarisation; solution phase direct binding, PDZ construct varied against 0.5 uM or 1 uM rhodamine-labeled NPT2A peptide; FP buffer (25 mM NaH2PO4, 10 mM NaCl, pH 7.4, 1 mM DTT, 0.1 mg/ml bovine IgG, 0.5 mM Thesit); 25°C; anisotropy fitted to a 1:1 complex.

The target of another experiment is T2, NHERF1 PDZ1 (11–120) (human, UniProt O14745 11-120).
T2 construct: Na+/H+ Exchanger Regulatory Factor-1 (NHERF1, EBP50), human, PDZ1 construct, residues 11-120; also called WT PDZ1 (11–120); source: E. coli BL21 (DE3), purified (Ni-NTA-agarose)
T2 sequence (looked up): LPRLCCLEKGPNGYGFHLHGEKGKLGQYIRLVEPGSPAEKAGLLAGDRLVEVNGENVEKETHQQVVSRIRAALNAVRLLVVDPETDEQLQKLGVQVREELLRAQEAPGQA
Described as above.

In experiment [2] the target is T1, NHERF1 PDZ1 (1–140). Kind of experiment: fluorescence polarisation; as a1 but at pH 5.5; 0.5 uM labeled NPT2A peptide, WT PDZ1 (1–140). On the technique in general: In fluorescence polarisation assays a small probe gives low polarisation when free and higher when bound to something large.
Experiment [3] has as its target T1, NHERF1 PDZ1 (1–140). Kind of experiment: fluorescence polarisation; as a1 but at pH 6.0; 0.5 uM labeled NPT2A peptide, WT PDZ1 (1–140).
Another experiment deals with T3, NHERF1 PDZ1 (1–120) (human, UniProt O14745 1-120).
T3 construct: the methods describe PDZ1 (11-120) and PDZ1 (1-140) but no 1-120 construct, so 1-120 may be a misprint of 11-120; Host and purification are the general statement of the methods; also called WT PDZ1; source: E. coli BL21 (DE3), purified (Ni-NTA-agarose)
T3 sequence (looked up): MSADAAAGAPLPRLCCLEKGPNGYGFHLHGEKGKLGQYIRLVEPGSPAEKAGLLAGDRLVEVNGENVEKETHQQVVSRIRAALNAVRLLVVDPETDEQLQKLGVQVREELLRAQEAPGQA
Kind of experiment: ITC; 25°C; 10 mM Hepes (pH 7.5), 10 mM NaCl, 0.5 mM EDTA, 0.5 mM beta-mercaptoethanol; 25 uM PDZ protein in the cell, NPT2A (200–250 uM) titrated in 19 injections of 2 ul. (In ITC the heat of successive injections is recorded.)

Experiment [4] deals with T4, NHERF1 PDZ1 H27N/E43D (1–120) (human, UniProt O14745 1-120, H27N | E43D).
T4 construct: The double mutant's plasmid is not described in the methods; also called His27Asn/Glu43Asp PDZ1; source: E. coli BL21 (DE3), purified (Ni-NTA-agarose)
T4 sequence (looked up): T3 sequence (looked up) with H27N, E43D
The experiment is described as above.

Another experiment concerns the target T5, NHERF1 PDZ1 H27N (1–120) (human, UniProt O14745 1-120, H27N).
T5 construct: the methods describe the mutants in PDZ1 (11-120), so 1-120 may be a misprint of 11-120; also called His27Asn; source: E. coli BL21 (DE3), purified (Ni-NTA-agarose)
T5 sequence (looked up): T3 sequence (looked up) with H27N
Described as above.

A further experiment has as its target T6, NHERF1 PDZ1 E43D (1–120) (human, UniProt O14745 1-120, E43D).
T6 construct: the methods describe the mutants in PDZ1 (11-120), so 1-120 may be a misprint of 11-120; also called Glu43Asp; source: E. coli BL21 (DE3), purified (Ni-NTA-agarose)
T6 sequence (looked up): T3 sequence (looked up) with E43D
The experiment is described as above.

The target in experiment [5] is B1. The experiment is described as follows: fluorescence polarisation; solution phase direct binding, PDZ construct varied against 0.5 uM or 1 uM rhodamine-labeled NPT2A peptide; FP buffer (25 mM NaH2PO4, 10 mM NaCl, pH 7.4, 1 mM DTT, 0.1 mg/ml bovine IgG, 0.5 mM Thesit); 25°C; anisotropy fitted to a 1:1 complex.

For orientation: Kd means a measure of binding affinity in units of concentration. Lower therefore signals a tighter complex. With B1, the Kd was 1.7 ± 0.2 µM with NHERF1 PDZ1 (1–140) [1], 5.5 ± 0.6 µM with NHERF1 PDZ1 (11–120), 16.1 ± 3.3 µM with NHERF1 PDZ1 (1–140) [2] and 8 ± 1.8 µM with NHERF1 PDZ1 (1–140) [3].
For orientation: stoichiometry N means the number of molecules, sites or subunits per partner or assembly. Take B2: the Kd worked out at 3.1 ± 0.3 µM with NHERF1 PDZ1 (1–120), 17.9 ± 0.9 µM in [4], 5.3 ± 0.5 µM with NHERF1 PDZ1 H27N (1–120) and 10.4 ± 0.8 µM with NHERF1 PDZ1 E43D (1–120). In addition, the dH with NHERF1 PDZ1 (1–120) was -8.2 ± 0.8 kcal/mol; in experiment [4], -5.8 ± 0.6 kcal/mol; with NHERF1 PDZ1 H27N (1–120) it was -7.5 ± 0.7 kcal/mol; in the experiment with NHERF1 PDZ1 E43D (1–120) it was -3 ± 0.3 kcal/mol. For the same molecule, the “stoichiometry N” value with NHERF1 PDZ1 (1–120) stood at 0.92; in [4] it was 0.6; with NHERF1 PDZ1 H27N (1–120) it was 0.61; with NHERF1 PDZ1 E43D (1–120), 0.6.
One may read the EC50 as the concentration that produces a half-maximal response. B3 returned an EC50 in [5] of 20 ± 10 µM.
Turning to B4, the EC50 in experiment [5] turned out to be 11.7 ± 2 µM.

Source of the values: paper PMC4466390, “Canonical and Noncanonical Sites Determine NPT2A Binding Selectivity to NHERF1 PDZ1” (PLoS ONE, 2015).
